Results published in the DeepSol protein solubility set.

Assay: soluble on expression in E. coli; label from the status in PepcDB or PDB records

Q: With “GSPEFPPTIQEIKQKIDSYNSREKHCLGMKLSEDGTYTGFIKVHLKLRRPVTVPAGIRPQSIYDAIKEVNPAATTDKRTSFYLPLDAIKQMHISSTTTVSEVIQGLLDKFMVVDNPQKFALFKRIHKDGQVLFQKLSIADYPLYLRLLAGPDTDVLSFVLKEN” as the sequence, how does the “soluble on expression in E. coli” value read?
A: Its value is “soluble”.

Q: With “GSPGIHMLGGSSDAGLATAAARGQVETVRQLLEAGADPNALNRFGRRPIQVMMMGSAQVAELLLLHGAEPNCADPATLTRPVHDAAREGFLDTLVVLHRAGARLDVCDAWGRLPVDLAEEQGHRDIARYLHAATGD” as the sequence, how does the “soluble on expression in E. coli” value read?
A: The value was “soluble”.

Q: Which “soluble on expression in E. coli” value does the source give for “GSQDVKCSLGYFPCGNITKCLPQLLHCNGVDDCGNQADEDNCG” here?
A: The value was “soluble”.

Q: Which “soluble on expression in E. coli” value does the source give for “GSRRLLEETLAPFRLNHDQLAAVQAQMRKAMAKGLRGEASSLRMLPTFVRATPDGSERGDFLALDLGGTNFRVLLVRVTTGVQITSEIYSIPETVAQGSGQQLFDHIVDCIVDFQQKQGLSGQSLPLGFTFSFPCRQLGLDQGILLNWTKGFKASDCEGQDVVSLLREAITRRQAVELNVVAIVNDTVGTMMSCGYEDPRCEIGLIVGTGTNACYMEELRNVAGVPGDSGRMCINMEWGAFGDDGSLAMLSTRFDASVDQASINPGKQRFEKMISGMYLGEIVRHILLHLTSLGVLFRGQQIQRLQTRDIFKTKFLSEIESDSLALRQVRAILEDLGLPLTSDDALMVLEVCQAVSQRAAQLCGAGVAAVVEKIRENRGLEELAVSVGVDGTLYKLHPRFSSLVAATVRELAPRCVVTFLQSEDGSGKGAALVTAVACRLAQLTR” here?
A: The value was “soluble”.

Q: With “GSRSEPAKVVDIRIDTSAERKPISPYIYGSNQELDATVTAKRFGGNRTTGYNWENNFSNAGSDWLHYSDTYLLEDGGVPKGEWSTPASVVTTFHDKALSKNVPYTLITLQAAGYVSADGNGPVSQEETAPSSRWKEVKFEKGAPFSLTPDTEDDYVYMDEFVNYLVNKYGNASTPTGIKGYSIDNEPALWSHTHPRIHPDNVTAKELIEKSVALSKAVKKVDPYAEIFGPALYGFAAYETLQSAPDWGTEGEGYRWFIDYYLDKMKKASDEEGKRLLDVLDVHWYPEARGGGERICFGADPRNIETNKARLQAPRTLWDPTYIEDSWIGQWKKDFLPILPNLLDSIEKYYPGTKLAITEYDYGGGNHITGGIAQADVLGIFGKYGVYLATFWGDASNNYTEAGINLYTNYDGKGGKFGDTSVKCETSDIEVSSAYASIVGEDDSKLHIILLNKNYDQPTTFNFSIDSSKNYTIGNVWAFDRGSSNITQRTPIVNIKDNTFTYTVPALTACHIVLEAAEP” as the sequence, how does the “soluble on expression in E. coli” value read?
A: Its value is “soluble”.

Q: Which “soluble on expression in E. coli” value does the source give for “GSSDVQYTEVQVSSAESHKDLGKKDTETVYSEVRKAVPDAVESRYSRTEGSLDGT” here?
A: Its value is “soluble”.

Q: With “GSSGSSGMPMTLGYWDIRGLAHAIRLFLEYTDSSYEEKRYTMGDAPDYDQSQWLNEKFKLGLDFPNLPYLIDGSHKITQSNAILRYLGRKHNLCGETEEERIRVDILENQLMDNRMVLARLCYNADFEKLKPGYLEQLPGMMRLYSEFLGKRPWFAGDKITFVDFIAYDVLERNQVFEAKCLDAFPNLKDFIARFEGLKKISDYMKTSRFLPRPMFTKMATWGSNSGPSSG” as the sequence, how does the “soluble on expression in E. coli” value read?
A: The value was “soluble”.

Q: For “GSSGSSGTRTYDREGFKKRAACLCFRSEQEDEVLLVSSSRYPDQWIVPGGGMEPEEEPGGAAVREVYEEAGVKGKLGRLLGIFENQDRKHRTYVYVLTVTEILEDWEDSVNIGRKREWFKVEDAIKVLQCHKPVHAEYLEKLKLG”, which “soluble on expression in E. coli” value is on record?
A: The value was “soluble”.

Q: With “GSSGSSGYQPTYNPTLPYKRPIPGGLSVGMSVYIQGMAKENMRRFHVNFAVGQDDGADVAFHFNPRFDGWDKVVFNTMQSGQWGKEEKKKSMPFQKGKHFELVFMVMPEHYKVVVNGNSFYEYGHRLPVQMVTHLQVDGDLELQSINFLGGQPAAAPY” as the sequence, how does the “soluble on expression in E. coli” value read?
A: Its value is “soluble”.

Q: Which “soluble on expression in E. coli” value does the source give for “GSSRGIPPKIEALPSDISIDEGKVLTVACAFTGEPTPEVTWSCGGRKIHSQEQGRFHIENTDDLTTLIIMDVQKQDGGLYTLSLGNEFGSDSATVNIHIRSI” here?
A: Its value is “soluble”.

Q: For “GSTVPYTITVNGTSQNILSNLTFNKNQNISYKDLEGKVKSVLESNRGITDVDLRLSKQAKYTVNFKNGTKKVIDLKSGIYTANLINSSDIKSININID”, which “soluble on expression in E. coli” value is on record?
A: Its value is “soluble”.

Q: For “GSYNKPSETVIPESVDGLQENLDVVVSLAERHYYNCDFKMCYKLTSVVMEKDPFHASCLPVHIGTLVELNKANELFYLSHKLVDLYPSNPVSWFAVGCYYLMVGHKNEHARRYLSKATTLEKTYGPAWIAYGHSFAVESEHDQAMAAYFTAAQLMKGCHLPMLYIGLEYGLTNNSKLAERFFSQALSIAPEDPFVMHEVGVVAFQNGEWKTAEKWFLDALEKIKAIGNEVTVDKWEPLLNNLGHVCRKLKKYAEALDYHRQALVLIPQNASTYSAIGYIHSLMGNFENAVDYFHTALGLRRDDTFSVTMLGHCIEMYIGDSEAYIGADIK”, which “soluble on expression in E. coli” value is on record?
A: Its value is “soluble”.

Q: Which “soluble on expression in E. coli” value does the source give for “GSYTLSEKDLKELDSIRDSFQCMNEPLDNDQQASTLAKKEHNPTDILNVMDITMRRLVKMAKRLGAFNEISEAGKFSLLKGGMIEMLTIRGVTVFNADKGVWQTPVDGHSQISFNMFDKLRPDIKDTQKKGFLHFFNLLHSDVRKNDLAIDIIVLMVLFDSKREGLVSQQDKETVEKLHRNYESLLHRYLYSIHKEEAEQRFASIPKALVALRKVAENAVTLFLGAGNTTEAASLPKEFFATNY” here?
A: Its value is “soluble”.

Q: With “GVEFMAGYYDTKNQALNPVSRTERPYPIVTVQNYVEKAIKEGRIQMNVEIEAFTTDIRMIVIGNVFEWCLRNGEADFEGNMVRSLGKYLDSTLD” as the sequence, how does the “soluble on expression in E. coli” value read?
A: The value was “not soluble”.

Q: For “GVEITEGVTVTAKGNTEGNTADLAIDGDLSTYWESSNDYKWIEVDLGGIYELSKIEIFNKDEAVYKYNIYASEDGENFNKIAYKNNDNVSDSNGNMHTIDNVRAGKIRIDVVQNSNSDRVNIAEINVFGKNTGESLPEVKKIATSNFSETPWATEYEKFNSDSAYANEKTLNEIKNLVGRVIGREFKDKFIFEIRDQLNGNDVFEVSDSGDGKVLIKGNNGVSLASGFNYYLKNYCNVSYNPIMGSNLKMPETMPSVGERVVIDTPYEHRYALNFCTYSYTMSFWDWDQYEEFLDWCAMNGVNLVLDIIGQEEVLRRTLNEFGYSDEEVKEFISGPAYFAWFYMQNMTGFGGPLPNDWFEQRAELGRKMHDRMQSFGINPVLQGYSGMVPRDFKEKNQEAQTISQGGWCGFDRPDMLKTYVNEGEADYFQKVADVFYEKQKEVFGDVTNFYGVDPFHEGGNTGDLDNGKIYEIIQNKMIEHDNDAVWVIQNWQGNPSNNKLEGLTKKDQAMVLDLFSEVSPDWNRLEERDLPWIWNMLHNFGGRMGMDAAPEKLATEIPKALANSEHMVGIGITPEAINTNPLAYELLFDMAWTRDQINFRTWTEDYIERRYGKTNKEILEAWNIILDTAYKKRNDYYQGAAESIINARPGFGIKSASTWGHSKIVYDKSEFEKAIEIFAKNYDEFKDSDAFLYDFADILKQLLANSAQEYYEVMCNAYNNGNGEKFKFVSGKFLELIKLQERVLSTRPEFLIGNWIEDARTMLKDSDDWTKDLFEFNARALVTTWGSRNNADGGGLKDYSNRQWSGLTEDYYYARWEKWINGLQAELDGGAKAPNIDWFKMEYDWVNKKSDTDKLYPTEASNENLGELAKIAMESYSVTNMDKILGENES”, which “soluble on expression in E. coli” value is on record?
A: Its value is “soluble”.

Q: With “GVSKEEYKDVETAKKEKEQLGELMEPALGYVVKVPVSSFENKKVDISDIEVITNGNLDDVPYKANSSKYNYPDIKTKDSSLQYVRSGYVIDGEHSGSNEKGYVYYKGNSPAKELPVNQLLTYTGSWDFTSNANLNNEEGRPNYLNDDYYTKFIGKRVGLVSGDAKPAKHKYTSQFEVDFATKKMTGKLSDKEKTIYTVNADIRGNRFTGAATASDKNKGKGESYNFFSADSQSLEGGFYGPKAEEMAGKFVANDKSLFAVFSAKHNGSNVDTVRIIDASKIDLTNFSISELNNFGDASVLIIDGKKIKLAGSGFTNKHTIEINGKTMVAVACCSNLEYMKFGQLWQQAEGGKPENNSLFLQGERTATDKMPKGGNYKYIGTWDAQVSKENNWVATADDDRKAGYRTEFDVDFGNKNLSGKLFDKNGVNPVFTVDPKIDGNGFTGKAKTSDAGFALDSGSSRYENVKFNDVAVSGGFYGPTAAELGGQFHHKSENGSVGAVFGAKQQVKK” as the sequence, how does the “soluble on expression in E. coli” value read?
A: Its value is “soluble”.

Q: With “GWSFEEQFKQVRQLYEINDDPKRKEFLDDLFSFMQKRGTPINRLPIMAKSVLDLYELYNLVIARGGLVDVINKKLWQEIIKGLHLPSSITSAAFTLRTQYMKYLYPYECEKKNLSTPAELQAAIDGNR” as the sequence, how does the “soluble on expression in E. coli” value read?
A: The value was “soluble”.
